Data on 2 substances can be found in paper PMC12848000.

The target of assay [1] is non-neddylated CUL1/RBX1 (StrepII2x-CUL1/RBX1), wild type (human) (UniProt Q13616). In words: SPR; StrepII2x-CUL1/RBX1 (non-neddylated) captured on a Strep-Tactin CM5 chip (~100 RU), CSN injected in single cycle (40-5120 nM, 180 s contact), 25 C, HBS-P+ with 1 mM TCEP; steady-state fit, 1:1 Langmuir.
Assay [2] deals with neddylated CUL1/RBX1 (StrepII2x-^N8CUL1/RBX1), wild type (UniProt Q13616). In words: SPR; StrepII2x-^N8CUL1/RBX1 captured on a Strep-Tactin CM5 chip (~100 RU), CSN injected in single cycle (0.625-80 nM, 80 s contact), 25 C, 10 mM HEPES pH 7.4, 150 mM NaCl, 0.05% Tween 20, 1 mM TCEP; steady-state fit, 1:1 Langmuir. For orientation: Surface plasmon resonance follows binding to a sensor surface in real time, without labels.

For assay [3], the target named is ^P32-His-PKA-N8CUL1/RBX1 (CUL1/RBX1 neddylated with His-PKA-NEDD8, 32P-labelled) (UniProt Q13616).
Sequence of ^P32-His-PKA-N8CUL1/RBX1 (CUL1/RBX1 neddylated with His-PKA-NEDD8, 32P-labelled) (Q13616 whole entry, chain 1 of 3): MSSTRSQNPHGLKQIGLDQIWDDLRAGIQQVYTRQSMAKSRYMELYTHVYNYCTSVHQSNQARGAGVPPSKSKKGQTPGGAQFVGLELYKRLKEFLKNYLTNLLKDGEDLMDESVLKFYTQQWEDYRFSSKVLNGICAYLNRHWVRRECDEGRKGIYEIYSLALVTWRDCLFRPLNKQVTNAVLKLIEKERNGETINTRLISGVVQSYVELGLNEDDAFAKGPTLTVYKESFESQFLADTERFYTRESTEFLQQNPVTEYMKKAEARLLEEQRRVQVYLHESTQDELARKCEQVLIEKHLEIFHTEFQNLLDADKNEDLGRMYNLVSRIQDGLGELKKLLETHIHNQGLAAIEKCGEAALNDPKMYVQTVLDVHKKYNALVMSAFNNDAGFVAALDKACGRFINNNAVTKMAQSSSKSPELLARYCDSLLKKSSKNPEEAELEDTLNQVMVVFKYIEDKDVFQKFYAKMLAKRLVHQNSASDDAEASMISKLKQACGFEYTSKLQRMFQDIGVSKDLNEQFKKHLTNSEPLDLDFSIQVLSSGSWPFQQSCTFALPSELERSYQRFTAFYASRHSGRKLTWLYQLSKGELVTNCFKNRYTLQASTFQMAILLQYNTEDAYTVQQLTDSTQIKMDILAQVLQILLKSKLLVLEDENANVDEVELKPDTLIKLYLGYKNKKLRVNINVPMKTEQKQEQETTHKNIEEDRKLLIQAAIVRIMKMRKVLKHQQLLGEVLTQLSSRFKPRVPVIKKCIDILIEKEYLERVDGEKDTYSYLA
Sequence of ^P32-His-PKA-N8CUL1/RBX1 (CUL1/RBX1 neddylated with His-PKA-NEDD8, 32P-labelled) (P62877 whole entry, chain 2 of 3, further chain): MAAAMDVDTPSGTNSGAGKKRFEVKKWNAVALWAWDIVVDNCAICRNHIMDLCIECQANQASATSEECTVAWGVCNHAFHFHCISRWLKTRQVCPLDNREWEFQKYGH
Sequence of ^P32-His-PKA-N8CUL1/RBX1 (CUL1/RBX1 neddylated with His-PKA-NEDD8, 32P-labelled) (Q15843 1-76, chain 3 of 3, further chain): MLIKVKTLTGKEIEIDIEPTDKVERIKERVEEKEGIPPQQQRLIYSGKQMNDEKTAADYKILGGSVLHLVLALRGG

Sequence of neddylated CUL1/RBX1 (StrepII2x-^N8CUL1/RBX1), wild type (Q13616 whole entry, chain 1 of 3): as the sequence (Q13616 whole entry, chain 1 of 3) above
Sequence of neddylated CUL1/RBX1 (StrepII2x-^N8CUL1/RBX1), wild type (P62877 whole entry, chain 2 of 3, further chain): as the sequence (P62877 whole entry, chain 2 of 3, further chain) above
Sequence of neddylated CUL1/RBX1 (StrepII2x-^N8CUL1/RBX1), wild type (Q15843 1-76, chain 3 of 3, further chain): as the sequence (Q15843 1-76, chain 3 of 3, further chain) above
Sequence of non-neddylated CUL1/RBX1 (StrepII2x-CUL1/RBX1), wild type (human) (Q13616 whole entry, chain 1 of 2): as the sequence (Q13616 whole entry, chain 1 of 3) above
Sequence of non-neddylated CUL1/RBX1 (StrepII2x-CUL1/RBX1), wild type (human) (P62877 whole entry, chain 2 of 2, further chain): as the sequence (P62877 whole entry, chain 2 of 3, further chain) above

In general, Kd refers to the free concentration of one partner at which half of the binding sites on the other are occupied at equilibrium, for simple one-to-one binding. In the case of “8CSN^5H138A (CSN^5H138A complex without CSNAP: CSN1-8, CSN5 H138A) (from UniProt Q13098 1-491; P61201 1-443; Q9UNS2 1-423; Q9BT78 1-406; Q92905 1-334; Q7L5N1 1-327; Q9H9Q2 1-264; Q99627 1-209)”, the results for the Kd in assay [1] and in assay [2] were 90 nM and 6 nM, respectively.
Regarding “CSN^5T105F (9CSN with CSN5 T105F) (from UniProt Q13098 1-491; P61201 1-443; Q9UNS2 1-423; Q9BT78 1-406; Q92905 1-334; Q7L5N1 1-327; Q9H9Q2 1-264; Q99627 1-209; Q8WXC6 1-57) (complex)”, the in vitro deneddylation activity, normalised to CSN^5WT in assay [3] is more than 50 % reduction.
